Reference: US20240409645A1 (DUALYX, published 2024)

Molecular target: T1, human IL-2 receptor (IL-2Rα/IL-2Rβ/γc) (human, UniProt P01589 22-272; P14784 27-551; P31785 23-369)
T1 sequence 1: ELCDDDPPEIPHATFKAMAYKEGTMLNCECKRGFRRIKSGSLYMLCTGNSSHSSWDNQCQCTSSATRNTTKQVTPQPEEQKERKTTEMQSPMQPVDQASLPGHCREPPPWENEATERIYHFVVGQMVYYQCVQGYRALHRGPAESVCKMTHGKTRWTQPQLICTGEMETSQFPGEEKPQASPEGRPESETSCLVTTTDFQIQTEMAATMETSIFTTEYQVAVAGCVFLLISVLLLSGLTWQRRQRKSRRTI
T1 sequence 2: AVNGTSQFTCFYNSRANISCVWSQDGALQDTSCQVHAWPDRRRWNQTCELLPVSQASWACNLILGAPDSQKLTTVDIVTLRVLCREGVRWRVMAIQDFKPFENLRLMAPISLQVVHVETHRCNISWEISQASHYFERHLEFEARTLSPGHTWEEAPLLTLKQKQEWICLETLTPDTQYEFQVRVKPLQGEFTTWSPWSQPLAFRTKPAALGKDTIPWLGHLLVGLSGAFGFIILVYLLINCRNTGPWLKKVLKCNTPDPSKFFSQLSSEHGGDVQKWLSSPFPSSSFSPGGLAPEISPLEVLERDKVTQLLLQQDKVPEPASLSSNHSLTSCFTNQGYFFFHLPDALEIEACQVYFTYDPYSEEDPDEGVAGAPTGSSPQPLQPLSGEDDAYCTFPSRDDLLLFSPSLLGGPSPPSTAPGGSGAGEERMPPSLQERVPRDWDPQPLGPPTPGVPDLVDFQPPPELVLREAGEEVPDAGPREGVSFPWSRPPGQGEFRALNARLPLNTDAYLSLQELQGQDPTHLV
T1 sequence 3: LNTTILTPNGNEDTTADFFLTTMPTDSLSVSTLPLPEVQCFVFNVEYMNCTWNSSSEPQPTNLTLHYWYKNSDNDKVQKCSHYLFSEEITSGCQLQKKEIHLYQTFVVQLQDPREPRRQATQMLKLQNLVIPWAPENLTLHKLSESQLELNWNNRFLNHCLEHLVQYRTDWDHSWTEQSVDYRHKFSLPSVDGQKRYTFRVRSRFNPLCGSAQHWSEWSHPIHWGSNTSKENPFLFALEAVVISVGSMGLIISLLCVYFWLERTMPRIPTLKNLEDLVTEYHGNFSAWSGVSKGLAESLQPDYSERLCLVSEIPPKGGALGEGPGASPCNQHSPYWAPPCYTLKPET
Assay: cell-based or functional assay

B1: DC00069 (other)
chain 1: EVQLVESGGGLVQTGGSLRLSCAASGGTFSRDAMAWFRQVPGKEREFVALISWSGATTNYADSVKGRFAISRDNGKNTVYLQMNRLKPADTAIYYCAADRRPMGSRSYFEPTEYDDWGQGTQVTVSSGGGGSGGGGSGGGGSQVQLVESGGGLVQPGGSLRLSCATSGFTFRNNFMSWVRQAPGKGLEWVSTISYGGESTTYAESVKGRFTISRDNAKNTLYLQMNNLKPEDTAVYYCAKATSYDSIRSGSRGQGTQVTVSSDKTHTCPPCPAPEAAGGPSVFLFPPKPKDTLMISRTPEVTCVVVDVSHEDPEVKFNWYVDGVEVHNAKTKPREEQYNSTYRVVSVLTVLHQDWLNGKEYKCKVSNKALGAPIEKTISKAKGQPREPQVYTLPPSRDELTKNQVSLTCLVKGFYPSDIAVEWESNGQPENNYKTTPPVLDSDGSFLLYSKLTVDKSRWQQGNVFSCSVMHEALHNHYTQKSLSLSPGK
chain 2: QVQLVESGGGLVQPGGSLRLSCATSGFTFRNNFMSWVRQAPGKGLEWVSTISYGGESTTYAESVKGRFTISRDNAKNTLYLQMNNLKPEDTAVYYCAKATSYDSIRSGSRGQGTQVTVSSGGGGSGGGGSGGGGSQVQLVESGGGLVQAGGSLTLSCAAPGRTFGTDVVGWFRQAPGKEREFVASISRSGDGIYYDDSVKGRFTISRNNAWNTVNLQMNSLKVEDTAVYYCAAGDGWSTYDYWGQGTQVTVSSGGGGSGGGGSGGGGSDKTHTCPPCPAPEAAGGPSVFLFPPKPKDTLMISRTPEVTCVVVDVSHEDPEVKFNWYVDGVEVHNAKTKPREEQYNSTYRVVSVLTVLHQDWLNGKEYKCKVSNKALGAPIEKTISKAKGQPREPQVYTLPPSRDELTKNQVSLTCLVKGFYPSDIAVEWESNGQPENNYKTTPPVLDSDGSFFLYSRLTVDKSRWQQGNVFSCSVMHEALHNHYTQKSLSLSPGK
EC50 (nM) pSTAT5, NK, human PBMCs: 0.234 nM | EC50 (nM) pSTAT5, Treg, human PBMCs: 0.00119 nM | Fold Max signal (% pSTAT5+) Treg/NK: 7 fold | Max signal (% pSTAT5+), NK: 12 % pSTAT5+ | Max signal (% pSTAT5+), Treg: 87 % pSTAT5+ | fold EC50 NK/Treg: 197 fold

B2: DC00070 (other)
chain 1: EVQLVESGGGLVQTGGSLRLSCAASGGTFSRDAMAWFRQVPGKEREFVALISWSGATTNYADSVKGRFAISRDNGKNTVYLQMNRLKPADTAIYYCAADRRPMGSRSYFEPTEYDDWGQGTQVTVSSGGGGSGGGGSGGGGSQVQLVESGGGLVQPGGSLRLSCATSGFTFRNNFMSWVRQAPGKGLEWVSTISYGGESTTYAESVKGRFTISRDNAKNTLYLQMNNLKPEDTAVYYCAKATSYDSIRSGSRGQGTQVTVSSDKTHTCPPCPAPEAAGGPSVFLFPPKPKDTLMISRTPEVTCVVVDVSHEDPEVKFNWYVDGVEVHNAKTKPREEQYNSTYRVVSVLTVLHQDWLNGKEYKCKVSNKALGAPIEKTISKAKGQPREPQVYTLPPSRDELTKNQVSLTCLVKGFYPSDIAVEWESNGQPENNYKTTPPVLDSDGSFLLYSKLTVDKSRWQQGNVFSCSVMHEALHNHYTQKSLSLSPGK
chain 2: QVQLVESGGGLVQAGGSLTLSCAAPGRTFGTDVVGWFRQAPGKEREFVASISRSGDGIYYDDSVKGRFTISRNNAWNTVNLQMNSLKVEDTAVYYCAAGDGWSTYDYWGQGTQVTVSSGGGGSGGGGSGGGGSQVQLVESGGGLVQPGGSLRLSCATSGFTFRNNFMSWVRQAPGKGLEWVSTISYGGESTTYAESVKGRFTISRDNAKNTLYLQMNNLKPEDTAVYYCAKATSYDSIRSGSRGQGTQVTVSSDKTHTCPPCPAPEAAGGPSVFLFPPKPKDTLMISRTPEVTCVVVDVSHEDPEVKFNWYVDGVEVHNAKTKPREEQYNSTYRVVSVLTVLHQDWLNGKEYKCKVSNKALGAPIEKTISKAKGQPREPQVYTLPPSRDELTKNQVSLTCLVKGFYPSDIAVEWESNGQPENNYKTTPPVLDSDGSFFLYSRLTVDKSRWQQGNVFSCSVMHEALHNHYTQKSLSLSPGK
EC50 (nM) pSTAT5, NK, human PBMCs: 0.0538 nM | EC50 (nM) pSTAT5, Treg, human PBMCs: 0.497 pM | Fold Max signal (% pSTAT5+) Treg/NK: 7 fold | Max signal (% pSTAT5+), NK: 11 % pSTAT5+ | Max signal (% pSTAT5+), Treg: 80 % pSTAT5+ | fold EC50 NK/Treg: 108 fold
